Experimental data: US6841385B2, “Transcription factor E2F DNA-binding domain inhibitor peptides and their use” (Topotarget UK Limited, priority 1999, dated 2005)
Each block holds one molecule with its values, some of them ahead of it. Ends that are not written are not given here. Peptide text beside a SMILES is read from it.

What was measured:
recombinant E2F1 and DP1 = biological target: T1, recombinant E2F1 and DP1 (Homo sapiens, UniProt Q01094); experiment: Band shift assay with recombinant E2F1 and DP1, B-myb E2F-binding site as probe; conditions: for inhibition: SEQ ID NO: 2 Alanine-scanning; for IC50: B-myb E2F-binding site as probe, read-out: IC50, inhibition of DNA binding
T1 construct: Purified E2F1 N1-His (64-301) and DP1 N2-GST (84-249) were incubated at 10 μg/ml; His; made in house; host or cells: E. coli BL21 DE3 (pET28b) for E2F1
Method: N-terminal fragments of human E2F1 (aa 64-301), E2F2 (aa 69-306), E2F3 (aa 128-356), E2F4 (aa 1-198), E2F5 (aa 42-233) were cloned into bacterial expression vector pET28b (Novagen) and were purified from BL21 DE3 cells by immobilised metal-affinity chromatography. A N-terminal fragment of DP1 (aa 85-249) was expressed as GST fusion protein and purified by glutathione-affinity chromatography.
Purified E2F1 N1-His (64-301) and DP1 N2-GST (84-249) were incubated at 10 μg/ml in a buffer containing 10 mM HEPES, […], 1 mM EDTA, […], 33 mg/ml BSA and 0.1 μg of sonicated salmon sperm for 10 minutes on ice. ^32P-labelled probe was added and the reaction mixture was incubated at room temperature for 20 minutes. Probes were labelled by filling-in 5′ overhanging ends of 4-7 bases. Samples were run on 4% non denaturing polyacrylamide gel in 0.5% TBE at 4° C. Gels were exposed to X-ray films. Nuclear extract (3 μg) was incubated in 17 μl buffer containing 0.3 M NaCl, 0.4 M Tris pH 7.9, 100 mM EDTA, 0.4 M DTT, 13% glycerol, 1 μg of sonicated salmon sperm on ice. The samples were then incubated for 10 minutes at 30° C. and cooled on ice. ^32P-labelled probe was added, the reaction mixtures were incubated for another 10 minutes at 30° C. and then cooled on ice.
• B-myb: (5′-[…]) (SEQ ID NO:16) • NF-Y: 5′-ATTTTTCTGATTTGGTTAA (SEQ ID NO:17) • Spl: 5′-ATGGGGCGGAGA (SEQ ID NO:18) • ATF: 5′-[…] (SEQ ID NO:19) Introduction of Peptides into Mammalian Cells
The inhibitory potential of the peptides on E2F function was analysed in band shift assays with recombinant E2F1 and DP1. […] The IC50 concentrations for the 3 peptides were in the range of 50-100 μM. Inhibition to various extends was also observed using recombinant fragments of E2F2, E2F3, E2F4, E2F5, respectively. Approximately 100-fold lower IC50 values were found with a branched molecule consisting of 4 copies of SEQ ID NO:2 linked by MAP (multiple antigen peptide).

HeLa cells = experiment: BrdU incorporation cell proliferation assay, HeLa cells; assay type: cell-based; conditions: 24 hrs, dose-dependent
Method: (§1) HeLa cells were grown in Dulbecco's Modified Eagle's Medium (DMEM) supplemented with fetal calf serum (FCS) and HL60 cells in RPMI 1640 supplemented with 10% FCS. Cells were treated with peptides in culture medium and incubated overnight before harvesting.
The peptides were tested in further experiments for their effect on cell cycle progression and cell viability. For this purpose, the peptides were conjugated at their C-terminus to a cell penetrating HIV-Tat derived peptide (aa 48-60) (Fawell et al. (1994) Proc. Natl. Acad. Sci. USA 91, 664-668).
(§2) HeLa, 3T3, W138 cells were treated with varying concentration of MAP-4-SEQ ID NO:2-TAT and a control peptide MAP-4-SEQ ID NO:39-TAT wherein SEQ ID NO:39 is SEQ ID NO:2 but containing 2 alanine substitutions at positions 1 and 4, i.e. AVRAHF (SEQ ID NO:39) DNA replication was analysed by BrdU incorporation after 24 hours.
(§3) Four tumor cell lines U2OS (osteosarcoma), C33A (cervical carcinoma), HeLa (cervical carcinoma) and E2F4/ras (derived from primary rat embryo fibroblasts) were treated with the branched peptide MAP-4-SEQ ID NO:2-TAT or mutant control peptide MAP-4-SEQ ID NO:39-TAT for 24 hrs. Cell proliferation was measured using the BrDU proliferation assay from Boehringer Mannheim (Cat No. 1 647 229).

HL60 cells [1] = experiment: Growth of HL60 cells treated with peptide; assay type: cell-based; conditions: HL60 cells, concentrations between 1-5 μM
Method: as §1, §2
(§4) Effects became visible after 5-24 hours defending on the concentration of the peptide.

HL60 cells [2] = experiment: Apoptosis, staining of HL60 cells with Heochst 33342 propidium iodide; assay type: cell-based
Method: as §4

HL60 cells [3] = experiment: Nuclease-laddering assay (DNA laddering) in HL60 cells; assay type: cell-based
Method: Treated cells were collected, washed with PBS, resuspended in lysis buffer (50 mM Tris pH 7.9, 100 mM EDTA, pH 8, 100 mM NaCl, 1% SDS) and 500 μg/ml proteinase K and incubated at 55° C. for 18 h. Cells were then incubated with […] for 1 hour at 37° C., genomic DNA was purified and examined by agarose gel electrophoresis.
as §4

CycA promoter = experiment: Transcription from the CycA promoter, HeLa cells transiently transfected with CycA-Luciferase construct; assay type: cell-based
From the text: This finding is in agreement with the anti-repressor function of E2F in the CycA promoter, (Liu et al, Oncogene (1998), 16, 2957-2963).

U2OS (osteosarcoma) = experiment: BrDU proliferation assay, U2OS cells; assay type: cell-based; conditions: 24 hrs, dose-dependent
Method: as §3

[4] = tested on: C33A (cervical carcinoma); experiment: BrDU proliferation assay, C33A cells; assay type: cell-based; conditions: 24 hrs, dose-dependent
Method: as §3

[5] = tested on: E2F4/ras (derived from primary rat embryo fibroblasts); experiment: BrDU proliferation assay, E2F4/ras cells; assay type: cell-based; conditions: 24 hrs, dose-dependent
Method: as §3

[6] = biological target: E2F in nuclear extracts from F9 embryonal carcinoma cells; experiment: band shift with F9 nuclear extract; inhibition of E2F DNA binding
[7] = biological target: E2F in HeLa cells (nuclear extracts; endogenous E2F in transfected HeLa cells); experiment: band shift with HeLa nuclear extract; inhibition of E2F DNA binding
[8] = biological target: E2F1 overexpressed in stable transfected 3T3 cells (nuclear extract) (UniProt Q01094 1-437, limits assumed); experiment: band shift, extract of 3T3 cells overexpressing E2F1; inhibition of DNA binding
Method: (§5) Probes were labelled by filling-in 5' overhanging ends of 4–7 bases. Samples were run on 4% non denaturing polyacrylamide gel in 0.5% TBE at 4° C. Gels were exposed to X-ray films. […] The samples were then incubated for 10 minutes at 30° C. and cooled on ice. ^32P-labelled probe was added, the reaction mixtures were incubated for another 10 minutes at 30° C. and then cooled on ice.

[9] = biological target: E2F2 overexpressed in stable transfected 3T3 cells (nuclear extract) (UniProt Q14209 1-437, limits assumed); experiment: band shift, extract of 3T3 cells overexpressing E2F2; inhibition of DNA binding
Method: as §5

[10] = biological target: E2F3 overexpressed in stable transfected 3T3 cells (nuclear extract) (UniProt O00716 1-465, limits assumed); experiment: band shift, extract of 3T3 cells overexpressing E2F3; inhibition of DNA binding
Method: as §5

[11] = biological target: E2F4 overexpressed in stable transfected 3T3 cells (nuclear extract) (UniProt Q16254 2-413, limits assumed); experiment: band shift, extract of 3T3 cells overexpressing E2F4; inhibition of DNA binding
Method: as §5

[12] = biological target: E2F5 overexpressed in stable transfected 3T3 cells (nuclear extract) (UniProt Q15329 1-346, limits assumed); experiment: band shift, extract of 3T3 cells overexpressing E2F5; inhibition of DNA binding
Method: as §5

[13] = biological target: T2, recombinant E2F1 N1-His (64-301) with DP1 N2-GST (84-249) (human, UniProt Q01094 64-301; Q14186 84-249); experiment: alanine scanning; grade of inhibition of E2F DNA binding (band shift)
T2 construct: range 64-301;range 84-249; Both proteins were incubated together at 10 ug/ml in the band shift assay with a 32P-labelled B-myb E2F-site probe; also called recombinant E2F1 and DP1; not shown: His tag from vector pET28b; GST fusion partner

[14] = biological target: T2, recombinant E2F1 N1-His (64-301) with …; experiment: deletion analysis; grade of inhibition of E2F DNA binding (band shift)
Method: as §5

[15] = biological target: T2, recombinant E2F1 N1-His (64-301) with …; experiment: alanine scanning; grade of inhibition of E2F DNA binding (band shift); remark: listed apart in the source
Method: as §5

[16] = biological target: T2, recombinant E2F1 N1-His (64-301) with …; experiment: band shift, recombinant E2F, inhibition of DNA binding
Method: Samples were run on 4% non denaturing polyacrylamide gel in 0.5% TBE at 4° C. Gels were exposed to X-ray films. […] The samples were then incubated for 10 minutes at 30° C. and cooled on ice. ^32P-labelled probe was added, the reaction mixtures were incubated for another 10 minutes at 30° C. and then cooled on ice.

T1 sequence (Q01094 64-301): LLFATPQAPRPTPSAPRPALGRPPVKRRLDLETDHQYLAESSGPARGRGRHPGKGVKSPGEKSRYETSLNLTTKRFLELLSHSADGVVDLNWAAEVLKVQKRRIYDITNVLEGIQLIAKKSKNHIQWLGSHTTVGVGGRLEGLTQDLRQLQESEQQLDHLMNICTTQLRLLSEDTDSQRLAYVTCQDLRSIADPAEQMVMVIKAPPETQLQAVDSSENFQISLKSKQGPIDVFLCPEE
T1 sequence (Q14186 84-249 partner): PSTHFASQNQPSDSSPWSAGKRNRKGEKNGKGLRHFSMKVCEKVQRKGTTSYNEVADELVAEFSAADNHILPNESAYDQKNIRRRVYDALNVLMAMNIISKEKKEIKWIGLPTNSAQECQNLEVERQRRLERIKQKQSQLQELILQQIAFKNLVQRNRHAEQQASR
T2 sequence (Q01094 64-301, chain 1 of 2): as the sequence (Q01094 64-301) above
T2 sequence (Q14186 84-249, chain 2 of 2): as the sequence (Q14186 84-249 partner) above
Sequence of E2F5 overexpressed in stable transfected 3T3 cells (nuclear extract) (Q15329 whole entry): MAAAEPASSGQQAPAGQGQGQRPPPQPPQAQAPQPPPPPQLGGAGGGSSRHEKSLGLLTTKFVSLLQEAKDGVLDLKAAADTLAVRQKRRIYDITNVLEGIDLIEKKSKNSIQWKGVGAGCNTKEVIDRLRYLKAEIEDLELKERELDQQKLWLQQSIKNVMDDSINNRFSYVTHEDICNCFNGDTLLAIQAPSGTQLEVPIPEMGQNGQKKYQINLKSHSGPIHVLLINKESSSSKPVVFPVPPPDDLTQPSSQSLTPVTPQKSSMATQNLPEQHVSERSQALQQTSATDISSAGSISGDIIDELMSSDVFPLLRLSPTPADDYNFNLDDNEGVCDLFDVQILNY
Sequence of E2F4 overexpressed in stable transfected 3T3 cells (nuclear extract) (Q16254 2-413 limits assumed): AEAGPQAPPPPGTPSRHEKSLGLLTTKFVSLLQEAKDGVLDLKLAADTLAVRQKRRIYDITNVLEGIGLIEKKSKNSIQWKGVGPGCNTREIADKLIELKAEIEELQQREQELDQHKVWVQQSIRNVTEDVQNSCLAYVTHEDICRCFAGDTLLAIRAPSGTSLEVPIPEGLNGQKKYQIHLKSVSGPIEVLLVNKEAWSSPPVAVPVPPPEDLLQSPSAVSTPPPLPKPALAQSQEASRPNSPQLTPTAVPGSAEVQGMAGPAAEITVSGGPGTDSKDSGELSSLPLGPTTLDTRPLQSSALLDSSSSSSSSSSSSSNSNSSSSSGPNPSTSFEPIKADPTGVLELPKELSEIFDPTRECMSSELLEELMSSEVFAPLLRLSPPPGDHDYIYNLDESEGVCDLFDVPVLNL
Sequence of E2F3 overexpressed in stable transfected 3T3 cells (nuclear extract) (O00716 whole entry): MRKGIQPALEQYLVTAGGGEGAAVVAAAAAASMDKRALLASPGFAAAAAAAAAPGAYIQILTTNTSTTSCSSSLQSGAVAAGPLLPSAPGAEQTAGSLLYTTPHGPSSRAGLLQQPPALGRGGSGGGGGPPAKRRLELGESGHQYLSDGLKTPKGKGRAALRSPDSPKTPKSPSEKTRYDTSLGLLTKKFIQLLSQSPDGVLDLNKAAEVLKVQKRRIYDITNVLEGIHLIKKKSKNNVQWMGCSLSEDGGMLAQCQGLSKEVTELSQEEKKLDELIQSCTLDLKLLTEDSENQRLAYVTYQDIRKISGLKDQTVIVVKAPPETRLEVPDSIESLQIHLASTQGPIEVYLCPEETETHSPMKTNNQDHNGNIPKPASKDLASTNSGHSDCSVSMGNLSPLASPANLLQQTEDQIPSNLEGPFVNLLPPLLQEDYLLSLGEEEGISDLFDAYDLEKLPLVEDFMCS
Sequence of E2F2 overexpressed in stable transfected 3T3 cells (nuclear extract) (Q14209 whole entry): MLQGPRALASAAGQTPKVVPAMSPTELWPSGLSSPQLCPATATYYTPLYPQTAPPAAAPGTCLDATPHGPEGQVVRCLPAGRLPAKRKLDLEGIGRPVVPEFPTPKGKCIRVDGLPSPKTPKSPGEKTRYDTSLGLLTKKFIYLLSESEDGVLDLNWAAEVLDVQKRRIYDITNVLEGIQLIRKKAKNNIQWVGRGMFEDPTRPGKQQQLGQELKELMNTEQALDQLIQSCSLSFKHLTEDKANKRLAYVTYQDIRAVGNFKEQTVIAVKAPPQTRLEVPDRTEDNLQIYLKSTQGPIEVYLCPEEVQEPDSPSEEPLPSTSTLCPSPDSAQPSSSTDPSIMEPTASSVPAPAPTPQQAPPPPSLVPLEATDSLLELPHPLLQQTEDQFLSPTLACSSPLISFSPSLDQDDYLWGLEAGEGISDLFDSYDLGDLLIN
Sequence of E2F1 overexpressed in stable transfected 3T3 cells (nuclear extract) (Q01094 whole entry): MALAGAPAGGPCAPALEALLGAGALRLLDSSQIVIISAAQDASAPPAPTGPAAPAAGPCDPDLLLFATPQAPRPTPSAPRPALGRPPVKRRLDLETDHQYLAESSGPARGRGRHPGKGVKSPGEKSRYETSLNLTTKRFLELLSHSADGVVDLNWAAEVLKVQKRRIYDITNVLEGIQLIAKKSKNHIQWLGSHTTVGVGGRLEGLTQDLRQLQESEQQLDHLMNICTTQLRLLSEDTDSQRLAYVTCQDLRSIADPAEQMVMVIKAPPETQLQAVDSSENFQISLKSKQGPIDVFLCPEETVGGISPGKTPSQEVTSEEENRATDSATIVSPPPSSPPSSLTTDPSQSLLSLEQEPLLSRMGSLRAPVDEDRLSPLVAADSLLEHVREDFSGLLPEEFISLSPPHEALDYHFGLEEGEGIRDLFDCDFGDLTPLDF

inhibition (recombinant E2F1 and DP1): 0
Molecule: WVAWHF [SEQ2-A3]

IC50 (recombinant E2F1 and DP1): 50 to 100 µM
Molecule: CC[C@H](C)[C@H](N)C(=O)N[C@@H](Cc1c[nH]c2ccccc12)C(=O)N[C@@H](CC(C)C)C(=O)N[C@@H](CO)C(=O)NCC(=O)N[C@@H](CC(C)C)C(=O)N[C@@H](CO)C(=O)N[C@@H](CCCNC(=N)N)C(=O)NCC(=O)N[C@H](C(=O)N[C@@H](Cc1c[nH]c2ccccc12)C(=O)N[C@H](C(=O)N[C@@H](CO)C(=O)N[C@@H](Cc1ccccc1)C(=O)N1CCC[C@H]1C(=O)O)C(C)C)C(C)C [SEQ ID NO:4, IWLSGLSRGVWVSFP] (H-IWLSGLSRGVWVSFP-OH)

IC50 (recombinant E2F1 and DP1): 50 to 100 µM
Molecule: CC(C)[C@H](NC(=O)[C@@H](N)Cc1c[nH]c2ccccc12)C(=O)N[C@@H](CCCNC(=N)N)C(=O)N[C@@H](Cc1c[nH]c2ccccc12)C(=O)N[C@@H](Cc1c[nH]cn1)C(=O)N[C@@H](Cc1ccccc1)C(=O)O [SEQ ID NO:2, WVRWHF] (H-WVRWHF-OH)

binding result [13]: binds
B3: SEQ2-A3 (WVAWHF) (peptide)
peptide: WVAWHF

binding result [13]: binds
B5: SEQ2-A5 (WVRWAF) (peptide)
peptide: WVRWAF

binding result [14]: binds
B6: SEQ5-8 (2-13) (SRILTFRSGSWY) (peptide)
peptide: SRILTFRSGSWY

binding result [15]: binds
B9: SEQ5-A3 (GSAILTFRSGSWYAS) (peptide)
peptide: GSAILTFRSGSWYAS

IC50 [6]: 100 µM
IC50 [7]: 100 µM
B10: peptide SEQ ID NO:5 (…) (peptide)
peptide: GSRILTFRSGSWYAS

fold lower IC50 (against the unbranched peptides) [16]: ~100 fold
concentration at which inhibition of E2F-DNA binding was found [6]: 10 to 30 µM
concentration at which inhibition of E2F-DNA binding was found [7]: 10 to 30 µM
IC50 [8]: ~30 µM
IC50 [9]: ~30 µM
IC50 [10]: ~30 µM
IC50 [11]: ~30 µM
IC50 [12]: ~30 µM
B11: MAP4-SEQ ID NO:2 (branched molecule consisting of 4 copies of SEQ ID NO:2 linked by MAP, multiple antigen peptide) (peptide)
peptide: WVRWHF
modifications: also: tetravalent MAP core: 4 copies joined by C-terminus to Lys2-Lys-X core
notes: Branched tetravalent peptide on a lysine MAP core

The next lines start with the molecule.

Molecule: CC[C@H](C)[C@H](NC(=O)[C@H](CCCNC(=N)N)NC(=O)[C@H](CO)NC(=O)CN)C(=O)N[C@@H](CC(C)C)C(=O)N[C@H](C(=O)N[C@@H](Cc1ccccc1)C(=O)N[C@@H](CCCNC(=N)N)C(=O)N[C@@H](CO)C(=O)NCC(=O)N[C@@H](CO)C(=O)N[C@@H](Cc1c[nH]c2ccccc12)C(=O)N[C@@H](Cc1ccc(O)cc1)C(=O)N[C@@H](C)C(=O)N[C@@H](CO)C(=O)O)[C@@H](C)O [SEQ ID NO:5, GSRILTFRSGSWYAS] (H-GSRILTFRSGSWYAS-OH)
IC50 (recombinant E2F1 and DP1): 50 to 100 µM

Molecule: WVRWAF [SEQ2-A5]
inhibition (recombinant E2F1 and DP1): 0

Molecule: WARWHF [SEQ2-A2]
inhibition (recombinant E2F1 and DP1): 0

Molecule: MAP-4-SEQ ID NO:39-TAT: control peptide; SEQ ID NO:39 is SEQ ID NO:2 with 2 alanine substitutions at positions 1 and 4, i.e. AVRAHF (not fully specified (N-terminus, C-terminus); also: MAP-4 branched core) [reference compound]
inhibition of proliferation (HeLa cells): not displayed
inhibition of cell proliferation / cell growth (HL60 cells [1]): no inhibitory effects
hallmarks of apoptosis after staining (HL60 cells [2]): No effects
DNA laddering (HL60 cells [3]): No effects
effect on transcription from CycA-Luciferase construct (CycA promoter): No effect
inhibition of proliferation (U2OS (osteosarcoma)): not displayed
inhibition of proliferation [4]: not displayed
inhibition of proliferation [5]: not displayed

B1: MAP4-SEQ ID NO:5 (peptide)
peptide: GSRILTFRSGSWYAS
modifications: also: tetravalent MAP core: 4 copies joined by C-terminus to Lys2-Lys-X core
notes: as for B11
IC50 [6]: 10 µM
IC50 [7]: 10 µM
IC50 [8]: ~30 µM
IC50 [9]: ~30 µM
IC50 [10]: ~30 µM
IC50 [11]: ~30 µM
IC50 [12]: ~30 µM

B2: peptide SEQ ID NO:2 (WVRWHF) (peptide)
peptide: WVRWHF
notes: Synthetic peptide in the band shift assays
concentration without inhibition [6]: > 500 µM
concentration without inhibition [7]: > 500 µM
binding result [13]: binds

B4: SEQ2-A2 (WARWHF) (peptide)
peptide: WARWHF
binding result [13]: binds

B7: peptide SEQ ID NO:5 (GSRILTFRSGSWYAS) (peptide)
peptide: GSRILTFRSGSWYAS
notes: as for B2
binding result [14]: binds

B8: SEQ5-A13 (GSRILTFRSGSWAAS) (peptide)
peptide: GSRILTFRSGSWAAS
binding result [15]: binds

B12: SEQ5-5 (3-15) (RILTFRSGSWYAS) (peptide)
peptide: RILTFRSGSWYAS
binding result [14]: binds
